{"source": "paper PMC5547543", "binders": {"B1": {"name": "Csk-homologous kinase (Chk), recombinant wild type (enzyme)", "chain": "MQGHFPAERREGRPRRGTRGQQQLLVSPRFLRAWHPPPVSARMPTRRWAPGTQCITKCEHTRPKPGELAFRKGDVVTILEACENKSWYRVKHHTSGQEGLLAAGALREREALSADPKLSLMPWFHGKISGQEAVQQLQPPEDGLFLVRESARHPGDYVLCVSFGRDVIHYRVLHRDGHLTIDEAVFFCNLMDMVEHYSKDKGAICTKLVRPKRKHGTKSAEEELARAGWLLNLQHLTLGAQIGEGEFGAVLQGEYLGQKVAVKNIKCDVTAQAFLDETAVMTKMQHENLVRLLGVILHQGLYIVMEHVSKGNLVNFLRTRGRALVNTAQLLQFSLHVAEGMEYLESKKLVHRDLAARNILVSEDLVAKVSDFGLAKAERKGLDSSRLPVKWTAPEALKHGKFTSKSDVWSFGVLLWEVFSYGRAPYPKMSLKEVSEAVEKGYRMEPPEGCPGPVHVLMSSCWEAEPARRPPFRKLAEKLARELRSAGAPASVSGQDADGSTSPRSQEP"}}, "key": {"Hck (2PA-YEEI) [1]": {"target": "Hck (2PA-YEEI) (UniProt P08631)"}, "Hck (2PA-YEEI) [2]": {"target": "Hck (2PA-YEEI) (UniProt P08631)", "experiment": "SPR; Hck (2PA-YEEI) amine-coupled (EDC/NHS) to a CMD 500 carboxymethyl dextran chip, 6053 RU, BIAcore 2000; Csk, Chk, Chk mutants and chimera as analytes in HBS (10 mM HEPES pH 7.4, 150 mM NaCl, 3.4 mM EDTA, 0.005% Tween 20); global fit to a 1 to 1 model with mass transfer; molecular binding activity from the maximum response"}}, "data": [{"binder": "B1", "values": [{"measurement": "inhibition of the kinase activity of Hck (2PA-YEEI) (0.5 μM) on the cdc2 (6-20) peptide after pre-incubation with Chk; more than 60% at 1.5 μM, up to 8.3 μM Chk", "setting": "Hck (2PA-YEEI) [1]", "result": 80, "unit": "%"}, {"measurement": "Kd", "setting": "Hck (2PA-YEEI) [2]", "result": 64, "unit": "nM"}, {"measurement": "koff", "setting": "Hck (2PA-YEEI) [2]", "result": 0.000272, "unit": "s⁻¹"}, {"measurement": "kon", "setting": "Hck (2PA-YEEI) [2]", "result": 4250, "unit": "M⁻¹ s⁻¹"}, {"measurement": "molecular binding activity (MBA) at 2.2 μM Chk", "setting": "Hck (2PA-YEEI) [2]; scale: mol of analyte bound per mol of immobilized Hck", "result": 0.46}]}]}
